Measured values taken from PMC9700324, “Selection-free endogenous tagging of cell lines by bicistronic co-expression of the surface antigen NGFR” (MethodsX, 2022).

T1: nLAP-tagged WDR59 (WD Repeat Domain 59), endogenously tagged (human (endogenous in HEK293T), UniProt Q6PJI9 1-974)
T1 construct: WDR59 (WD Repeat Domain 59), subunit of GATOR2, human; NGFRETD is split off at the P2A site and is not part of this chain; The tag was inserted in the 5'UTR (donor NGFR "-2"); they are printed only as DNA; also called WDR59-GFP; nLAP-WDR59; source: endogenously tagged allele in HEK (Lenti-X 293T) spCas9+ cells, WDR59-NGFRETD-nLAP clone D5, in lysate; not shown: EGFP, N-terminal, kept
T1 sequence (looked up): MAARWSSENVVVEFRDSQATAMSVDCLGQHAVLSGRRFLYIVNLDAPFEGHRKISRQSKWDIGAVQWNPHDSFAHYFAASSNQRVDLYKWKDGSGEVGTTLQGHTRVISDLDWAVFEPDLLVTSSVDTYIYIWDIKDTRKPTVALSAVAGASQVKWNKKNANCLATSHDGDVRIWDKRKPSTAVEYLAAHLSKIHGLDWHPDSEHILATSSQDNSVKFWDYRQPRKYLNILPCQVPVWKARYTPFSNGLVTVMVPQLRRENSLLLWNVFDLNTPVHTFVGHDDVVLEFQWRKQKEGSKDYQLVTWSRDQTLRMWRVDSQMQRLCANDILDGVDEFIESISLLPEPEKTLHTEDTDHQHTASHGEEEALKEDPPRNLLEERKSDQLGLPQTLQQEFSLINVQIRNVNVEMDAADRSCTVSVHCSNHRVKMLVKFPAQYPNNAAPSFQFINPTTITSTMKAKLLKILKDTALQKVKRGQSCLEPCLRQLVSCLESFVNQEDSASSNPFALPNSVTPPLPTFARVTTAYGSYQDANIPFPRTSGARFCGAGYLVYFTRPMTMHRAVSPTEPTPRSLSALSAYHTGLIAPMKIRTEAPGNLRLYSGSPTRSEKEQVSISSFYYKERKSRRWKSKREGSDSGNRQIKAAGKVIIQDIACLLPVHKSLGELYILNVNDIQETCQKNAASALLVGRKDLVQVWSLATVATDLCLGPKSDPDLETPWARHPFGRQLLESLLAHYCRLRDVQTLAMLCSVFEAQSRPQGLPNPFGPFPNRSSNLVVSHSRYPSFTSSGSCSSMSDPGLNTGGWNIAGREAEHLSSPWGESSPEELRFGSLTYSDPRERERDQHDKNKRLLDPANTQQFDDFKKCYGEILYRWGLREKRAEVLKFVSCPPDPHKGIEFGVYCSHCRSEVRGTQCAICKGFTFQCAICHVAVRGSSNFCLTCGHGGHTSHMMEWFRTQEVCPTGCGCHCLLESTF

T2: nLAP-tagged WDR59 (WD Repeat Domain 59), endogenously tagged (human (endogenous in HEK293T)), Q6PJI9
T2 chain: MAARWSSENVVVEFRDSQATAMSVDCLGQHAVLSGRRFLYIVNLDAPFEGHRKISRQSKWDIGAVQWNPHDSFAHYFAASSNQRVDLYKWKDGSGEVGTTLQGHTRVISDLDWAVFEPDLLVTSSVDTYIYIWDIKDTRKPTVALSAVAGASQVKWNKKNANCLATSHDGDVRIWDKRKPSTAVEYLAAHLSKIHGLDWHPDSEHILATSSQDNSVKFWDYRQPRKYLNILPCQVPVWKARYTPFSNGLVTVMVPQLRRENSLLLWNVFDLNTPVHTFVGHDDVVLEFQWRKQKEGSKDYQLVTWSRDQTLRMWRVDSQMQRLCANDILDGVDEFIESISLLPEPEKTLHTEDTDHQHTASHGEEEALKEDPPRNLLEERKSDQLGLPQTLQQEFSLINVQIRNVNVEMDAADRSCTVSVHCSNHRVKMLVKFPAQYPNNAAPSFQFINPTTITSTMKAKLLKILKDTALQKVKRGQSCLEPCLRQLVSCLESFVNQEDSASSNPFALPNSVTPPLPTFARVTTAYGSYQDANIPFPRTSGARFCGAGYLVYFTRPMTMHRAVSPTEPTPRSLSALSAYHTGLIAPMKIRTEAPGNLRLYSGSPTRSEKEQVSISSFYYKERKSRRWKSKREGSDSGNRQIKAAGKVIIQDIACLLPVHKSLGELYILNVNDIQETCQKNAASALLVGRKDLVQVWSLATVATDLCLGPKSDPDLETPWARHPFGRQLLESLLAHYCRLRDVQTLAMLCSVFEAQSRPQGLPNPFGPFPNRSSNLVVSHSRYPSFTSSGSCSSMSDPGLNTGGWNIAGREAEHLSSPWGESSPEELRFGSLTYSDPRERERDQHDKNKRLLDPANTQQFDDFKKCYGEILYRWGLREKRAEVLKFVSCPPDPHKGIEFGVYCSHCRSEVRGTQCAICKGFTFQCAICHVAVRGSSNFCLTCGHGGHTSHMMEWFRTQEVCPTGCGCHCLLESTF


Tests used:
[1] = target: T1, nLAP-tagged WDR59 (WD Repeat Domain …); test: co-IP; nLAP-tagged WDR59 precipitated from 1,000-3,000 µg lysate protein with GFP-Trap magnetic agarose beads (GFP-specific nanobodies) overnight at 4°C; CoIP buffer (10 mM Tris-HCl pH 8, 150 mM NaCl, 5 mM EDTA, 0.5% Triton X-100, 60 mM octyl-β-D-glucopyranoside); 5 washes; partners detected by Western blot; cells untreated, amino acid-starved 16 h with or without 60 min stimulation with all amino acids or leucine, …; details: partners not purified
[2] = target: T2, nLAP-tagged WDR59 (WD Repeat Domain …); test: as above; details: remark: other sources report otherwise

Binder | co-IP signal after leucine restimulation, fold of the leucine-starved sample [1] [fold] | co-IP signal after restimulation with all amino acids, percent of the amino acid-starved sample (normalised to WDR59-GFP) [1] [%] | co-IP signal after leucine restimulation, fold of the leucine-starved sample [2] [fold] | co-IP signal after restimulation with all amino acids, fold of the amino acid-starved sample (normalised to WDR59-GFP) [2] [fold] | co-IP signal after restimulation with leucine alone, fold of the amino acid-starved sample (normalised to WDR59-GFP) [2] [fold]
MIOS (Meiosis Regulator For Oocyte Development) (natural protein, human (endogenous in HEK293T), UniProt Q9NXC5 1-875, looked up, MIOS (Meiosis Regulator For Oocyte Development), subunit of GATOR2, human, endogenous; also called GATOR2 subunit MIOS; source: endogenous, HEK (Lenti-X 293T) spCas9+ WDR59-NGFRETD-nLAP clone D5 lysate) MSGTKPDILWAPHHVDRFVVCDSELSLYHVESTVNSELKAGSLRLSEDSAATLLSINSDTPYMKCVAWYLNYDPECLLAVGQANGRVVLTSLGQDHNSKFKDLIGKEFVPKHARQCNTLAWNPLDSNWLAAGLDKHRADFSVLIWDICSKYTPDIVPMEKVKLSAGETETTLLVTKPLYELGQNDACLSLCWLPRDQKLLLAGMHRNLAIFDLRNTSQKMFVNTKAVQGVTVDPYFHDRVASFYEGQVAIWDLRKFEKPVLTLTEQPKPLTKVAWCPTRTGLLATLTRDSNIIRLYDMQHTPTPIGDETEPTIIERSVQPCDNYIASFAWHPTSQNRMIVVTPNRTMSDFTVFERISLAWSPITSLMWACGRHLYECTEEENDNSLEKDIATKMRLRALSRYGLDTEQVWRNHILAGNEDPQLKSLWYTLHFMKQYTEDMDQKSPGNKGSLVYAGIKSIVKSSLGMVESSRHNWSGLDKQSDIQNLNEERILALQLCGWIKKGTDVDVGPFLNSLVQEGEWERAAAVALFNLDIRRAIQILNEGASSEKGDLNLNVVAMALSGYTDEKNSLWREMCSTLRLQLNNPYLCVMFAFLTSETGSYDGVLYENKVAVRDRVAFACKFLSDTQLNRYIEKLTNEMKEAGNLEGILLTGLTKDGVDLMESYVDRTGDVQTASYCMLQGSPLDVLKDERVQYWIENYRNLLDAWRFWHKRAEFDIHRSKLDPSSKPLAQVFVSCNFCGKSISYSCSAVPHQGRGFSQYGVSGSPTKSKVTSCPGCRKPLPRCALCLINMGTPVSSCPGGTKSDEKVDLSKDKKLAQFNNWFTWCHNCRHGGHAGHMLSWFRDHAECPVSACTCKCMQLDTTGNLVPAETVQP | ~2 | 85 | – | – | –
Sestrin-2 (SESN2) (natural protein, human (endogenous in HEK293T), UniProt P58004 1-480, looked up, Sestrin-2 (SESN2), leucine-sensing protein, human, endogenous; source: endogenous, HEK (Lenti-X 293T) spCas9+ WDR59-NGFRETD-nLAP clone D5 lysate) MIVADSECRAELKDYLRFAPGGVGDSGPGEEQRESRARRGPRGPSAFIPVEEVLREGAESLEQHLGLEALMSSGRVDNLAVVMGLHPDYFTSFWRLHYLLLHTDGPLASSWRHYIAIMAAARHQCSYLVGSHMAEFLQTGGDPEWLLGLHRAPEKLRKLSEINKLLAHRPWLITKEHIQALLKTGEHTWSLAELIQALVLLTHCHSLSSFVFGCGILPEGDADGSPAPQAPTPPSEQSSPPSRDPLNNSGGFESARDVEALMERMQQLQESLLRDEGTSQEEMESRFELEKSESLLVTPSADILEPSPHPDMLCFVEDPTFGYEDFTRRGAQAPPTFRAQDYTWEDHGYSLIQRLYPEGGQLLDEKFQAAYSLTYNTIAMHSGVDTSVLRRAIWNYIHCVFGIRYDDYDYGEVNQLLERNLKVYIKTVACYPEKTTRRMYNLFWRHFRHSEKVHVNLLLLEARMQAALLYALRAITRYMT | ~2 | 82 | – | – | –
WDR24 (WD Repeat Domain 24) (natural protein, human (endogenous in HEK293T), UniProt Q96S15 1-790, looked up, WDR24 (WD Repeat Domain 24), subunit of GATOR2, human, endogenous; also called GATOR2 subunit WDR24; source: endogenous, HEK (Lenti-X 293T) spCas9+ WDR59-NGFRETD-nLAP clone D5 lysate) MEKMSRVTTALGGSVLTGRTMHCHLDAPANAISVCRDAAQVVVAGRSIFKIYAIEEEQFVEKLNLRVGRKPSLNLSCADVVWHQMDENLLATAATNGVVVTWNLGRPSRNKQDQLFTEHKRTVNKVCFHPTEAHVLLSGSQDGFMKCFDLRRKDSVSTFSGQSESVRDVQFSIRDYFTFASTFENGNVQLWDIRRPDRCERMFTAHNGPVFCCDWHPEDRGWLATGGRDKMVKVWDMTTHRAKEMHCVQTIASVARVKWRPECRHHLATCSMMVDHNIYVWDVRRPFVPAAMFEEHRDVTTGIAWRHPHDPSFLLSGSKDSSLCQHLFRDASQPVERANPEGLCYGLFGDLAFAAKESLVAAESGRKPYTGDRRHPIFFKRKLDPAEPFAGLASSALSVFETEPGGGGMRWFVDTAERYALAGRPLAELCDHNAKVARELGRNQVAQTWTMLRIIYCSPGLVPTANLNHSVGKGGSCGLPLMNSFNLKDMAPGLGSETRLDRSKGDARSDTVLLDSSATLITNEDNEETEGSDVPADYLLGDVEGEEDELYLLDPEHAHPEDPECVLPQEAFPLRHEIVDTPPGPEHLQDKADSPHVSGSEADVASLAPVDSSFSLLSVSHALYDSRLPPDFFGVLVRDMLHFYAEQGDVQMAVSVLIVLGERVRKDIDEQTQEHWYTSYIDLLQRFRLWNVSNEVVKLSTSRAVSCLNQASTTLHVNCSHCKRPMSSRGWVCDRCHRCASMCAVCHHVVKGLFVWCQGCSHGGHLQHIMKWLEGSSHCPAGCGHLCEYS | ~2 | 71 | – | – | –
NPRL3 (Nitrogen Permease Regulator 3-Like Protein), Q12980 1-569 (natural protein) MRDNTSPISVILVSSGSRGNKLLFRYPFQRSQEHPASQTSKPRSRYAASNTGDHADEQDGDSRFSDVILATILATKSEMCGQKFELKIDNVRFVGHPTLLQHALGQISKTDPSPKREAPTMILFNVVFALRANADPSVINCLHNLSRRIATVLQHEERRCQYLTREAKLILALQDEVSAMADGNEGPQSPFHHILPKCKLARDLKEAYDSLCTSGVVRLHINSWLEVSFCLPHKIHYAASSLIPPEAIERSLKAIRPYHALLLLSDEKSLLGELPIDCSPALVRVIKTTSAVKNLQQLAQDADLALLQVFQLAAHLVYWGKAIIIYPLCENNVYMLSPNASVCLYSPLAEQFSHQFPSHDLPSVLAKFSLPVSLSEFRNPLAPAVQETQLIQMVVWMLQRRLLIQLHTYVCLMASPSEEEPRPREDDVPFTARVGGRSLSTPNALSFGSPTSSDDMTLTSPSMDNSSAELLPSGDSPLNQRMTENLLASLSEHERAAILSVPAAQNPEDLRMFARLLHYFRGRHHLEEIMYNENTRRSQLLMLFDKFRSVLVVTTHEDPVIAVFQALLP | – | – | 2 | 1.2 | 1.89
